In US20240254204A1 (NATIONAL UNIVERSITY OF SINGAPORE, published 2024):
Where “and” joins values, the source holds several entries; their conditions need not be identical. Equal values may be shown once.

Experiments:
Assay in all cases: cell-based or functional assay
[1] = biological target: SARS-COV-1 full-length spike (SARS-CoV)
WIV-1 full-length spike = WIV-1 full-length spike (SC1r-CoV WIV-1)
[2] = biological target: SARS-COV-2 Wuhan-hu-1 (ancestral) full-length spike (SARS-CoV-2)

Measured: pseudovirus neutralization NT50

B1: Antibody 11 (SS6V11-E7) (antibody, V domains shown)
VH: QVQLQESGPGLVKPSETLSLTCTVSGGFIGPHYWSWVRQPPGKGLEWIGYIYISGSTNYNPSLKSRLTISVDMSKSQFSLTLSSATAADTAVYYCARGGGYLETGPFEYWGQGTLVTVSS
VL: DIVMTQSPLSLPVTPGEPASISCRSSQSLLQNNGYNYLAWYLQKPGQSPQLLIYLSSTRASGVPDRFSGSGSGTDFTLKISRVEAEDVGVYYCMQSLQIPGTFGQGTRLEIK
< 10 ng/ml and < 0.067 nM: all assays above

B2: Antibody 20 (SS6V20-F5) (antibody, V domains shown)
VH: QVQLQESGPGLVKPSETLSLTCTVSGGSIIGYYWSWIRQPPGKGLEWIGYIYFSANTNYNPSLKSRVTMSVDMSKKQFSLKLRSVTAADTAVYYCARGGGYLETGPLDFWGQGILVTVSS
VL: DIVMTQSPLSLPVTPGEPASISCRSSQSLMQLNGYNYLAWYLQRPGQSPQLLIYLGSTRASGVPDRFSGSGSGTDFTLKITRVEAEDVGVYYCMQGLQIPGTFGQGTRLEIK
< 10 ng/ml and < 0.067 nM: all assays above

B3: Antibody 13 (SS6V13-F1) (antibody, V domains shown)
VH: QVQLQESGPGLVKPSETLSLTCSVSGVSILGSYWGWIRQPPGTGLQWIGYIYFSENTNYNPSLQSRVTMSLDTSKNLLSLKLSSVTAADTAVYYCARGGGYLETGPFDSWGQGTLVTVSS
VL: DIVMTQSPLSLPVTPGEPASISCRSSQGLVQSNGYNYLAWYLQKPGQSPQLLIYLGSNRASGVPDRFSGSGSGTDFTLKISRVEAEDVGVYYCMQGLQTPGTFGQGTRLEIK
< 10 ng/ml and < 0.067 nM: all assays above
